We go through two molecules from article PMC10584687.

Assay [1] deals with GluA2 (modified calcium-permeable rat GluA2(Q) flip subunit, GluA2*) (rat). Description: cryo-EM structure; complex co-purified from HEK293S GnTI− cells transduced with GluA2–γ5 (no antagonists in the medium) by the streptavidin affinity tag and SEC in 150 mM NaCl, 20 mM Tris pH 8.0, 0.005% CHS, 0.05% digitonin, 1 mM βME; grids with 100 µM ZK, no ligand (apo), 100 µM ZK + 100 µM PMP, or 10 mM Glu.

Assay [2] shares this target.
Assay [3] deals with GluA2–γ5 fusion construct (N terminus of γ5 covalently linked to the C terminus of GluA2) (rat | mouse) (UniProt Q8VHW4).
Assay [4] has as its target GluA2 (modified calcium-permeable rat GluA2(Q) flip subunit, GluA2*) (rat). This is another data set of the same source.
For assay [5], the target named is GluA2–γ5 fusion construct (N terminus of γ5 covalently linked to the C terminus of GluA2) (rat | mouse) (UniProt Q8VHW4). The source holds these as a separate data set.
For assay [6] the target is unchanged. Description: cryo-EM structure; complex co-purified from HEK293S GnTI− cells transduced with GluA2–γ5 (no antagonists in the medium) by the streptavidin affinity tag and SEC in 150 mM NaCl, 20 mM Tris pH 8.0, 0.005% CHS, 0.05% digitonin, 1 mM βME; grids with 100 µM ZK, no ligand (apo), 100 µM ZK + 100 µM PMP, or 10 mM Glu.
Assay [7] addresses GluA2 (modified calcium-permeable rat GluA2(Q) flip subunit, GluA2*) (rat). The source holds these as a separate data set.
The target of assay [8] is GluA2–γ5 fusion construct (N terminus of γ5 covalently linked to the C terminus of GluA2) (rat | mouse) (UniProt Q8VHW4). This is another data set of the same source.

B1: TARP γ5 (C-terminally truncated mouse subunit, Cacng5, residues S2-E207) (domain or fragment)
chain: SACGRKALTLLSSVFAVCGLGLLGIAVSTDYWLYLEEGIILPQNQSTEVKMSLHSGLWRVCFLAGEERGRCFTIEYVMPMNSQMTSESTVNVLKMIRSATPFPLVSLFFMFIGFILSNIGHIRPHRTILAFVSGIFFILSGLSLVVGLVLYISSINDEMLNRTKDAETYFNYKYGWSFAFAAISFLLTESAGVMSVYLFMKRYTAE
Turning to B1, in assay [1], the stoichiometry N (γ5 subunits per AMPAR tetramer) came out at 2.

B2: cornichon-2 (CNIH2), endogenous human (natural protein)
chain: MAFTFAAFCYMLTLVLCASLIFFVIWHIIAFDELRTDFKNPIDQGNPARARERLKNIERICCLLRKLVVPEYSIHGLFCLMFLCAAEWVTLGLNIPLLFYHLWRYFHRPADGSEVMYDAVSIMNADILNYCQKESWCKLAFYLLSFFYYLYSMVYTLVSF
On to B2, for which, in assay [2], the deactivation time constant τDeact, whole-cell patch clamp, HEK293 cells cotransfected with GluA2 and wild-type human CNIH2, 2 ms 3 mM Glu, −60 mV was determined as 10.8 ms; the desensitization time constant τDes, whole-cell patch clamp, HEK293 cells cotransfected with GluA2 and wild-type human CNIH2, 500 ms 3 mM Glu, −60 mV is 28 ms. For the same molecule, in assay [3], the deactivation time constant τDeact, whole-cell patch clamp, HEK293 cells cotransfected with GluA2–γ5 and wild-type human CNIH2, 2 ms 3 mM Glu, −60 mV amounted to 4.21 ms; the desensitization time constant τDes, whole-cell patch clamp, HEK293 cells cotransfected with GluA2–γ5 and wild-type human CNIH2, 500 ms 3 mM Glu, −60 mV came out at 14.8 ms. Besides, in assay [4], the fraction of nondesensitized channels ISS/IMax, whole-cell patch clamp, HEK293 cells cotransfected with GluA2 and wild-type human CNIH2 was 0.211. Also, the fraction of nondesensitized channels ISS/IMax, whole-cell patch clamp, HEK293 cells cotransfected with GluA2–γ5 and wild-type human CNIH2 in assay [5] turned out to be 0.06. Further, the stoichiometry N (CNIH2 subunits per GluA2–γ5 tetramer) in assay [6] amounted to 2. The time constant of recovery from desensitization τRecDes, two-pulse protocol, HEK293 cells cotransfected with GluA2 and wild-type human CNIH2 in assay [7] was determined as 21.7 ms. Further, in assay [8], the time constant of recovery from desensitization τRecDes, two-pulse protocol, HEK293 cells cotransfected with GluA2–γ5 and wild-type human CNIH2 amounted to 36.8 ms.
